Test results reported in the supplement of paper PMC7125110.
± gives the standard error. For part of these data: Variants at the floor of the assay were thinned out.

B1: glmS ribozyme (parent)
chain: AUAAAAGCGCCAGAACUACAGAAAUGUAGUUGACGAGGAGGAGGUUUAUCGAAUUUUCGGCGGAUGCCUCCAAA

Columns and labels:
Conditions in all cases: with glucosamine-6-phosphate
glucosamine-6-phosphate [1] = variants of: B1; experiment: kcat; higher = faster cleavage; RNA array
Outline: (§1)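 Barcoded ribozyme variants were transcribed in situ on sequenced MiSeq chips by E. coli RNA polymerase. At 37 °C, a hybridised Cy3 probe tracked them while glucosamine-6-phosphate (40 μM to 10 mM) in HEPES/KCl/Mg(OAc)2 buffer flowed in and tiles were imaged over ~14 h. Per-tile medians of signals normalised to baseline and to non-cleaving reference variants were fit to one- or two-exponential decays, giving kobs. kcat and KM came from weighted Michaelis–Menten fits across concentrations.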

glucosamine-6-phosphate [2] = variants of: B1; experiment: KM; higher = weaker cofactor use; RNA array
Outline: as §1

glucosamine-6-phosphate [3] = variants of: B1; experiment: self-cleavage kobs at 2500 uM GlcN6P; higher = faster cleavage; RNA array
Outline: as §1

glucosamine-6-phosphate [4] = variants of: B1; experiment: self-cleavage kobs at 10000 uM GlcN6P; higher = faster cleavage; RNA array
Outline: as §1

glucosamine-6-phosphate [5] = variants of: B1; experiment: self-cleavage kobs at 640 uM GlcN6P; higher = faster cleavage; RNA array
Outline: as §1

glucosamine-6-phosphate [6] = variants of: B1; experiment: self-cleavage kobs at 40 uM GlcN6P; higher = faster cleavage; RNA array
Outline: as §1

glucosamine-6-phosphate [7] = variants of: B1; experiment: self-cleavage kobs at 160 uM GlcN6P; higher = faster cleavage; RNA array
Outline: as §1

Variant	kcat (glucosamine-6-phosphate [1]) [s⁻¹]	KM (glucosamine-6-phosphate [2]) [µM]	self-cleavage kobs at 2500 uM GlcN6P (glucosamine-6-phosphate [3]) [s⁻¹]	self-cleavage kobs at 10000 uM GlcN6P (glucosamine-6-phosphate [4]) [s⁻¹]	self-cleavage kobs at 640 uM GlcN6P (glucosamine-6-phosphate [5]) [s⁻¹]	self-cleavage kobs at 40 uM GlcN6P (glucosamine-6-phosphate [6]) [s⁻¹]	self-cleavage kobs at 160 uM GlcN6P (glucosamine-6-phosphate [7]) [s⁻¹]
U56G G59A	5.14e-05 ± 3e-06	1920 ± 460	3e-05 ± 8.2e-06	4.3e-05 ± 6.1e-06	–	–	–
U30A U46C	0.000377 ± 6.9e-05	1730 ± 750	–	0.000332 ± 7e-05	0.000117 ± 3.5e-05	–	–
U46C U56A	0.00121 ± 0.00013	1470 ± 230	0.000915 ± 0.00015	0.00098 ± 0.00014	0.000406 ± 0.00011	2.85e-05 ± 1e-05	0.000117 ± 1.4e-05
C11A G41A	< 1e-05	2450 ± 650	–	–	< 1e-05	–	< 1e-05
G32A A39C	0.00032 ± 6.8e-05	3190 ± 1300	0.000114 ± 2.1e-05	0.000259 ± 3.2e-05	6.63e-05 ± 1.2e-05	–	–
G32A C67A	0.000956 ± 0.00011	2730 ± 630	0.000586 ± 0.00011	0.000728 ± 8.2e-05	0.000168 ± 3.4e-05	–	5.05e-05 ± 1.6e-05
G32A C67G	0.000177 ± 2.7e-05	1890 ± 580	9.14e-05 ± 1.2e-05	0.000164 ± 2.4e-05	4.83e-05 ± 6.9e-06	< 1e-05	–
C68U U69G	2.33e-05 ± 5.5e-06	–	3.45e-05 ± 1.6e-05	–	–	–	–
C34G C67A	1.49e-05 ± 6.7e-06	–	–	–	–	–	< 1e-05
U30A C67A	0.00161 ± 0.00066	–	0.00102 ± 0.00018	0.00131 ± 0.0002	0.000231 ± 4.7e-05	4.92e-05 ± 9.2e-06	0.00014 ± 3.7e-05
C10U A36G	< 1e-05	–	–	< 1e-05	< 1e-05	< 1e-05	–
A12G A39U	0.000523 ± 9.7e-05	4350 ± 1400	0.000246 ± 4.1e-05	0.00035 ± 4.6e-05	6.01e-05 ± 1.2e-05	–	–
A39C C67G	0.000391 ± 0.00014	–	0.000216 ± 1.7e-05	–	8.41e-05 ± 7.6e-06	2.13e-05 ± 7.7e-06	3.74e-05 ± 7.5e-06
C10U A14U	< 1e-05	–	–	–	–	< 1e-05	–
U54G C71G	0.00104 ± 0.00019	511 ± 150	0.000909 ± 0.0002	0.0011 ± 0.00012	0.000398 ± 9e-05	8.73e-05 ± 8.8e-06	0.000192 ± 4.6e-05
